This is an account of results in publication PMC11022072 (2024).

Targets include FL LbpB ΔCaHD; LbpB C-lobe; LbpB C-lobe ΔCaHD.
Assay in all cases: BLI

B1: bovine lactoferrin (Lf) (natural protein)
chain: APRKNVRWCTISQPEWFKCRRWQWRMKKLGAPSITCVRRAFALECIRAIAEKKADAVTLDGGMVFEAGRDPYKLRPVAAEIYGTKESPQTHYYAVAVVKKGSNFQLDQLQGRKSCHTGLGRSAGWIIPMGILRPYLSWTESLEPLQGAVAKFFSASCVPCIDRQAYPNLCQLCKGEGENQCACSSREPYFGYSGAFKCLQDGAGDVAFVKETTVFENLPEKADRDQYELLCLNNSRAPVDAFKECHLAQVPSHAVVARSVDGKEDLIWKLLSKAQEKFGKNKSRSFQLFGSPPGQRDLLFKDSALGFLRIPSKVDSALYLGSRYLTTLKNLRETAEEVKARYTRVVWCAVGPEEQKKCQQWSQQSGQNVTCATASTTDDCIVLVLKGEADALNLDGGYIYTAGKCGLVPVLAENRKSSKHSSLDCVLRPTEGYLAVAVVKKANEGLTWNSLKDKKSCHTAVDRTAGWNIPMGLIVNQTGSCAFDEFFSQSCAPGADPKSRLCALCAGDDQGLDKCVPNSKEKYYGYTGAFRCLAEDVGDVAFVKNDTVWENTNGESTADWAKNLNREDFRLLCLDGTRKPVTEAQSCHLAVAPNHAVVSRSDRAAHVKQVLLHQQALFGKNGKNCPDKFCLFKSETKNLLFNDNTECLAKLGGRPTYEEYLGTEYVTAIANLKKCSTSPLLEACAFLTR
The Kd is the constant that tells how readily two partners part at equilibrium. Low readings indicate tighter binding, high ones weaker binding. For the molecule B1, the results for the Kd in the assay with FL LbpB ΔCaHD, with LbpB C-lobe and in the assay with LbpB C-lobe ΔCaHD were 1280 nM, 200 nM and 2900 nM, respectively.
